Test results reported in patent US8138307 (CEDARS SINAI MEDICAL CENTER, dated 2012).

Legend:
[1] = target: T1, GAL4 activation domain-MP36a fusion (pGAD10 clone MP36a) (UniProt P04386 768-881); assay: yeast two-hybrid liquid assay (β-galactosidase)
T1 construct: Prey clone from a human brain cDNA library

[2] = target: T2, GAL4 activation domain-MP23a fusion (pGAD10 clone MP23a, partial synapsin-like protein) (human); assay: yeast two-hybrid liquid assay (β-galactosidase)
T2 construct: Partial clone; also called SLP (MP23a)
T2 chain: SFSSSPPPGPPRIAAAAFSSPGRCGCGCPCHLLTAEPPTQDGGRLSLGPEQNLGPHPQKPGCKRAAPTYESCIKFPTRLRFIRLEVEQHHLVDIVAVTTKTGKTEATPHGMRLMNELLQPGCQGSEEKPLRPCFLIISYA

B1: GAL4 binding domain-parkin(1-465) fusion encoded by pGBT9-parkin(1-465) (other, UniProt P04386 1-147, looked up)
chain: MKLLSSIEQACDICRLKKLKCSKEKPKCAKCLKNNWECRYSPKTKRSPLTRAHLTEVESRLERLEQLFLLIFPREDLDMILKMDSLQDIKALLTGLFVQDNVNKDAVTDRLASVETDMPLTLRQHRISATSSSEESSNKGQRQLTVSMIVFVRFNSSHGFPVEVDSDTSIFQLKEVVAKRQGVPADQLRVIFAGKELRNDWTVQNCDLDQQSIVHIVQRPWRKGQEMNATGGDDPRNAAGGCEREPQSLTRVDLSSSVLPGDSVGLAVILHTDSRKDSPPAGSPAGRSIYNSFYVYCKGPCQRVQPGKLRVQCSTCRQATLTLTQGPSCWDDVLIPNRMSGECQSPHCPGTSAEFFFKCGAHPTSDKETSVALHLIATNSRNITCITCTDVRSPVLVFQCNSRHVICLDCFHLYCVTRLNDRQFVHDPQLGYSLPCVAGCPNSLIKELHHFRILGEEQYNRYQQYGAEECVLQMGGVLCPRPGCGAGLLPEPDQRKVTCEGGNGLGCGFAFCRECKEAYHEGECSAVFEASGTTTQAYRVDERAAEQARWEAASKETIKKTTKPCPRCHVPVEKNGGCMHMKCPQPQCRLEWCWNCGCEWNRVCMGDHWFDV
notes: Yeast two-hybrid bait expressed in yeast strain Y190; also called parkin bait
fold β-galactosidase activity over negative control vector pGBT9 [1]: ~20 fold
fold β-galactosidase activity over negative control vector pGBT9 [2]: ~30 fold
